US12338281B2, “Anti-adrenomedullin antibodies and pharmaceutical compositions thereof” (ADRENOMED AG, priority 2011, dated 2025)

Experiments:
hADM = molecular target: T1, hADM (Homo sapiens, UniProt P35318); assay: Stability of human Adrenomedullin in human citrate plasma, quantified by hADM immunoassay; format: in vitro ADME; conditions: 10 nM hADM, 24° C., NT-H 100 μg/ml
T1 sequence (P35318 95-146 limits assumed): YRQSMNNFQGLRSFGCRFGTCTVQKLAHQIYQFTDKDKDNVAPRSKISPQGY

Human ADM 1-52 = molecular target: T2, Human ADM 1-52 (Homo sapiens, UniProt P35318); assay: Human recombinant Adrenomedullin receptor (CRLR+RAMP3) cAMP functional assay (Adrenomedullin Bioassay) in CHO-K1 cells, agonist human ADM; format: cell-based; conditions: Table 3; 5.63 nM Human ADM 1-52; antibody 0.16-100 μg/ml
T2 construct: host or cells: the receptor chains are made by transfected CHO-K1 cells (FAST-027C); ADM is an added peptide
T2 sequence (P35318 95-146): T1 sequence (P35318 95-146 limits assumed)
Description: The effect of selected ADM-antibodies on ADM-bioactivity was tested in an human recombinant Adrenomedullin receptor cAMP functional assay (Adrenomedullin Bioassay).
• Cell line: CHO-K1 • Receptor: Adrenomedullin (CRLR+RAMP3) • Receptor Accession Number Cell line: CRLR: U17473; RAMP3: AJ001016
Dose response curves were performed in parallel with the reference agonists (hADM or mADM).
For antagonist testing, 6 μl of the reference agonist (human (5.63 nM) or mouse (0.67 nM) adrenomedullin) was mixed with 6 μl of the test samples at different antagonist dilutions; or with 6 μl buffer. After incubation for 60 min at room temperature, 12 μl of cells (2,500 cells/well) were added. The plates were incubated for 30 min at room temperature.
The anti-h-ADM antibodies (NT-H, MR-H, CT-H) were tested for antagonist activity in human recombinant adrenomedullin receptor (FAST-027C) cAMP functional assay in the presence of 5.63 nM Human ADM 1-52, at the following final antibody concentrations: 100 μg/ml, 20 μg/ml, 4 μg/ml, 0.8 μg/ml, 0.16 μg/ml.

half life of hADM in the presence of NT-H (hADM): 18.3 h
Maximal inhibition of ADM bioactivity (ADM-Bioassay) (%) (Human ADM 1-52): 38%
B1: NT-H: mouse monoclonal antibody raised against human ADM 1-21, … (SEQ ID: 15) (antibody, V domains shown)
VH: QVQLQQSGAELMKPGASVKISCKATGYTFSRYWIEWVKQRPGHGLEWIGEILPGSGSTNYNEKFKGKATITADTSSNTAYMQLSSLTSEDSAVYYCTEGYEYDGFDYWGQGTTLTVSS
VL: DVLLSQTPLSLPVSLGDQATISCRSSQSIVYSNGNTYLEWYLQKPGQSPKLLIYRVSNRFSGVPDRFSGSGSGTDFTLKISRVEAEDLGVYYCFQGSHIPYTFGGGTKLEIK
